Data from patent US12692514B2, “Living cells engineered with polyphenol-functionalized biologically active nanocomplexes” (PRESIDENT AND FELLOWS OF HARVARD COLLEGE, priority 2020, dated 2026).

Assay: In vivo biodistribution after intravenous administration (IVIS)
Set-up: species or system C57BL/6 mice
Settings: 5 min (0.08 hour) after administration
Procedure: (FIG. 3A) IVIS images of excised mouse lungs 5 min (0.08 hours) after the administration of OVA protein only and OVA/Erythrocyteplex. […] OVA was used for the fluorescence signal. (FIG. 3B) Biodistribution of OVA only and OVA/Erythrocyteplex 5 min after intravenous (IV) administration. (FIG. 3C) Biodistribution of OVA only and OVA/Erythrocyteplex 6 hours after IV administration. (FIG. 3D) Biodistribution of OVA only and OVA/Erythrocyteplex 24 hours after IV administration. (FIG. 3E) Lung to liver ratio of OVA delivered by the control counterpart and OVA/Erythrocyteplex throughout the entire measurement window. (FIG. 3F) Remaining OVA delivered by Erythrocyteplex through the time after 24 hours post-injection. […] Variation is represented by SE (error bars) from three independent replicates for all data points. (FIG. 3G) Confocal florescence microscopy images of lung vascular capillary sections 5 min. […]
Female 50-56 days old C57BL/6 mice (n=3-6 per group) were administered intravenously using a with OVA-Erythrocyteplex coated with 30 ug/mL OVA. […] Each organ was placed in a 6 well tissue culture plate (Falcon); blood (50 μL) was placed in a heparinized microcapillary tube (Drummond Scientific) and far red fluorescence signal for each organ was imaged using Perkin Elmer IVIS small animal imaging system. Far red signals were quantified using LivingImage software.

B1: free OVA: free ovalbumin protein, control counterpart (protein, UniProt P01012 2-386, looked up)
Ovalbumin: GSIGAASMEFCFDVFKELKVHHANENIFYCPIAIMSALAMVYLGAKDSTRTQINKVVRFDKLPGFGDSIEAQCGTSVNVHSSLRDILNQITKPNDVYSFSLASRLYAEERYPILPEYLQCVKELYRGGLEPINFQTAADQARELINSWVESQTNGIIRNVLQPSSVDSQTAMVLVNAIVFKGLWEKAFKDEDTQAMPFRVTEQESKPVQMMYQIGLFRVASMASEKMKILELPFASGTMSMLVLLPDEVSGLEQLESIINFEKLTEWTSSNVMEERKIKVYLPRMKMEEKYNLTSVLMAMGITDVFSSSANLSGISSAESLKISQAVHAAHAEINEAGREVVGSAEAGVDAASVSEEFRADHPFLFCIKHIATNAVLFFGRCVSP
- signal in the liver: strong signal intensities in the liver
